Assay results as given in patent publication US20260201347A1, “ARTIFICIAL BIFUNCTIONAL ENZYME COMPRISING A MYELOPEROXIDASE ACTIVITY AND A GLUCOSE OXIDASE ACTIVITY AND APPLICATIONS THEREOF” (UNIVERSITÉ DE BORDEAUX, priority 2022, published 2026).
Positions count from the first letter of the chain named. Several values for one entry are separate records, joined by “and”; a condition that tells them apart may be missing. Equal values may be shown once.

Columns and labels:
Format in all cases: biochemical, Rhodopirellula baltica / Penicillium amagasakiens
[1] = substrate: OC[C@H]1OC(O)[C@H](O)[C@@H](O)[C@@H]1O; experiment: Coupled active sites, HOCl production from glucose, all other chimeras; conditions: glucose as substrate, pH 7.5
Method: (§1) Each experiment was performed in triplicate.
(§2) The activity of the two active sites was then assessed in conjunction to each other (FIG. 1).
(§3) Briefly, the aim was to measure the production of HOCl from glucose and NaCl as respective substrates of the enzymes, using the APF probe. Two types of kinetics were performed: • i) kinetics at various concentrations of glucose and a fixed concentration of NaCl, and • ii) kinetics at various concentration of NaCl and a fixed concentration of glucose.

[2] = substrate: OC[C@H]1OC(O)[C@H](O)[C@@H](O)[C@@H]1O; experiment: Coupled active sites, HOCl production from glucose, APF assay (Table 9), linker LEKREAEA; conditions: other: trimer; fixed NaCl 20 mM, pH7.5; pH 7.5
Method: as §1, §2, §3

[3] = substrate: OC[C@H]1OC(O)[C@H](O)[C@@H](O)[C@@H]1O; experiment: Coupled active sites, HOCl production from glucose, APF assay (Table 9), linker LGKRGAGA; conditions: fixed NaCl 20 mM, pH7.5, pH 7.5
Method: as §1, §2, §3

[4] = substrate: OC[C@H]1OC(O)[C@H](O)[C@@H](O)[C@@H]1O; experiment: Coupled active sites, HOCl production from glucose, APF assay (Table 9), linker LEKREAEALEKREAEA; conditions: fixed NaCl 20 mM, pH7.5, pH 7.5
Method: as §1, §2, §3

B1: RbMPO-GOx chimeras, all other chimeras (Penicillium amagasakiense) (protein)
chain: YLPAQQIDVQSSLLSDPSKVAGKTYDYIIAGGGLTGLTVAAKLTENPKIKVLVIEKGFYESNDGAIIEDPNAYGQIFGTTVDQNYLTVPLINNRTNNIKAGKGLGGSTLINGDSWTRPDKVQIDSWEKVFGMEGWNWDNMFEYMKKAEAARTPTAAQLAAGHSFNATCHGTNGTVQSGARDNGQPWSPIMKALMNTVSALGVPVQQDFLCGHPRGVSMIMNNLDENQVRVDAARAWLLPNYQRSNLEILTGQMVGKVLFKQTASGPQAVGVNFGTNKAVNFDVFAKHEVLLAAGSAISPLILEYSGIGLKSVLDQANVTQLLDLPVGINMQDQTTTTVSSRASSAGAGQGQAVFFANFTETFGDYAPQARDLLNTKLDQWAEETVARGGFHNVTALKVQYENYRNWLLDEDVAFAELFMDTEGKINFDLWDLIPFTRGSVHILSSDPYLWQFANDPKFFLNEFDLLGQAAASKLARDLTSQGAMKEYFAGETLPGYNLVQNATLSQWSDYVLQNFRPNWHAVSSCSMMSRELGGVVDATAKVYGTQGLRVIDGSIPPTQVSSHVMTIFYGMALKVADAILDDYAKSA
notes: pET21a, E. coli; heme and FAD reconstituted; GOx mature part (P81156 19-605)
kcat/Km [1]: 1 M⁻¹ s⁻¹

B2: RbMPO-LEKREAEA-GOx chimera (Rhodopirellula baltica myeloperoxidase, SEQ ID NO: 10; linker SEQ ID NO: 7; Penicillium amagasakiens glucose oxidase, SEQ ID NO: … (protein)
chain: MLFWSKRTRKHPGRKRRRLRSEQLESRQLLAADFGGYRHNIYDAEDVNDDGRVSAIDALLVINAMTSETSRDENVFTDVNGDGRRSALDALRVINRIERGDVFPIDTSGDEDLNTLLPEMPSEVRSIDGSGNNPNDHLWGSVGQRLIRMAPAAYGDGISTLAGANRPSAREVSNVLSAMNTSQVLNDRGLSAFVYVWGQFIDHDLGLTESDEHGEAIDISVPEGDLWFDPMGSGEAVIPMTRTPIADGTGTSVGNPAQQFNQITAFIDGSMVYGSDAATAERLRTFAGGRLAISDNGLLPMDESGMVIAGDVRASENVGLTAIQTLFVREHNRLADEIFAADPEATDEEIYQRARLVVASLIQSITYNEFLPALLGQRAMDSYRGYDASVNPGIANEFSTAAFRLGHSTLRDEVGFMSNDGRESKDEMELKDAFFHASMLEETGIDSLLKFDASVQAQEIDLAVVDSLRNFLFGPPGAGGLDLVAMNIQRGRDHGLSDYNTTRQAYGLDRVETFDQITGDVELQQKLASLYGTVDNIDLWVGLMAEDHQHDASVGELTGLIIADQFQRTRDGDRFFYKNVLTDSEVESIERSTLADLIERNTSVDGLQENVFFMQVELRGRVILASSIPPNTMPSEVREEEIRGVSGMAIELIDASGKLVDSTVSDQHGNYRFRALSETGDYQVRLSESGEAMDVLVAHGAERIRGLDFIVLALEKREAEAYLPAQQIDVQSSLLSDPSKVAGKTYDYIIAGGGLTGLTVAAKLTENPKIKVLVIEKGFYESNDGAIIEDPNAYGQIFGTTVDQNYLTVPLINNRTNNIKAGKGLGGSTLINGDSWTRPDKVQIDSWEKVFGMEGWNWDNMFEYMKKAEAARTPTAAQLAAGHSFNATCHGTNGTVQSGARDNGQPWSPIMKALMNTVSALGVPVQQDFLCGHPRGVSMIMNNLDENQVRVDAARAWLLPNYQRSNLEILTGQMVGKVLFKQTASGPQAVGVNFGTNKAVNFDVFAKHEVLLAAGSAISPLILEYSGIGLKSVLDQANVTQLLDLPVGINMQDQTTTTVSSRASSAGAGQGQAVFFANFTETFGDYAPQARDLLNTKLDQWAEETVARGGFHNVTALKVQYENYRNWLLDEDVAFAELFMDTEGKINFDLWDLIPFTRGSVHILSSDPYLWQFANDPKFFLNEFDLLGQAAASKLARDLTSQGAMKEYFAGETLPGYNLVQNATLSQWSDYVLQNFRPNWHAVSSCSMMSRELGGVVDATAKVYGTQGLRVIDGSIPPTQVSSHVMTIFYGMALKVADAILDDYAKSA
notes: 6His (in the pET21a vector behind the XhoI site); made in house; host or cells: E. coli BL21Star (DE3)
Km [2]: 10620 ± 8250 µM | kcat [2]: 0.000109 s⁻¹ | kcat/Km [2]: 0.01 ± 0.011 M⁻¹ s⁻¹

B3: RbMPO-LGKRGAGA-GOx chimera (Rhodopirellula baltica myeloperoxidase, SEQ ID NO: 10; linker SEQ ID NO: 5; Penicillium amagasakiens glucose oxidase, SEQ ID NO: … (protein)
chain: B2 chain with E715G, E718G, E720G
notes: as for B2
Km ([3]; other: dimer/monomer): 66900 ± 24100 µM | kcat ([3]; other: dimer/monomer): 0.00305 s⁻¹ | kcat/Km ([3]; other: dimer/monomer): 0.046 ± 0.025 M⁻¹ s⁻¹ | Km ([3]; other: excluded): 2270 ± 1300 µM | kcat ([3]; other: excluded): 0.00133 s⁻¹ | kcat/Km ([3]; other: excluded): 0.586 ± 0.384 M⁻¹ s⁻¹ | Km ([3]; other: trimer): 2022 ± 644 µM | kcat ([3]; other: trimer): 0.0022 s⁻¹ | kcat/Km ([3]; other: trimer): 1.09 ± 0.801 M⁻¹ s⁻¹

B4: RbMPO-LEKREAEALEKREAEA-GOx chimera (Rhodopirellula baltica myeloperoxidase, SEQ ID NO: 10; linker SEQ ID NO: 6; Penicillium amagasakiens glucose oxidase, SEQ … (protein)
chain: MLFWSKRTRKHPGRKRRRLRSEQLESRQLLAADFGGYRHNIYDAEDVNDDGRVSAIDALLVINAMTSETSRDENVFTDVNGDGRRSALDALRVINRIERGDVFPIDTSGDEDLNTLLPEMPSEVRSIDGSGNNPNDHLWGSVGQRLIRMAPAAYGDGISTLAGANRPSAREVSNVLSAMNTSQVLNDRGLSAFVYVWGQFIDHDLGLTESDEHGEAIDISVPEGDLWFDPMGSGEAVIPMTRTPIADGTGTSVGNPAQQFNQITAFIDGSMVYGSDAATAERLRTFAGGRLAISDNGLLPMDESGMVIAGDVRASENVGLTAIQTLFVREHNRLADEIFAADPEATDEEIYQRARLVVASLIQSITYNEFLPALLGQRAMDSYRGYDASVNPGIANEFSTAAFRLGHSTLRDEVGFMSNDGRESKDEMELKDAFFHASMLEETGIDSLLKFDASVQAQEIDLAVVDSLRNFLFGPPGAGGLDLVAMNIQRGRDHGLSDYNTTRQAYGLDRVETFDQITGDVELQQKLASLYGTVDNIDLWVGLMAEDHQHDASVGELTGLIIADQFQRTRDGDRFFYKNVLTDSEVESIERSTLADLIERNTSVDGLQENVFFMQVELRGRVILASSIPPNTMPSEVREEEIRGVSGMAIELIDASGKLVDSTVSDQHGNYRFRALSETGDYQVRLSESGEAMDVLVAHGAERIRGLDFIVLALEKREAEALEKREAEAYLPAQQIDVQSSLLSDPSKVAGKTYDYIIAGGGLTGLTVAAKLTENPKIKVLVIEKGFYESNDGAIIEDPNAYGQIFGTTVDQNYLTVPLINNRTNNIKAGKGLGGSTLINGDSWTRPDKVQIDSWEKVFGMEGWNWDNMFEYMKKAEAARTPTAAQLAAGHSFNATCHGTNGTVQSGARDNGQPWSPIMKALMNTVSALGVPVQQDFLCGHPRGVSMIMNNLDENQVRVDAARAWLLPNYQRSNLEILTGQMVGKVLFKQTASGPQAVGVNFGTNKAVNFDVFAKHEVLLAAGSAISPLILEYSGIGLKSVLDQANVTQLLDLPVGINMQDQTTTTVSSRASSAGAGQGQAVFFANFTETFGDYAPQARDLLNTKLDQWAEETVARGGFHNVTALKVQYENYRNWLLDEDVAFAELFMDTEGKINFDLWDLIPFTRGSVHILSSDPYLWQFANDPKFFLNEFDLLGQAAASKLARDLTSQGAMKEYFAGETLPGYNLVQNATLSQWSDYVLQNFRPNWHAVSSCSMMSRELGGVVDATAKVYGTQGLRVIDGSIPPTQVSSHVMTIFYGMALKVADAILDDYAKSA
notes: as for B2
Km ([4]; other: dimer/monomer): 2020 ± 1070 µM | Km ([4]; other: excluded): 14170 ± 4620 µM | kcat ([4]; other: excluded): 0.00015 s⁻¹ | kcat/Km ([4]; other: excluded): 0.01 ± 0.004 M⁻¹ s⁻¹ | Km ([4]; other: trimer): 770 ± 500 µM | kcat ([4]; other: trimer): 0.00137 s⁻¹ | kcat/Km ([4]; other: trimer): 1.7 ± 1.34 M⁻¹ s⁻¹ and 1.77 M⁻¹ s⁻¹
